Experimental data taken from patent US20080299097A1.

Key:
CX3CR1 (human) = CX3CR1 (human) (UniProt P49238); assay: cell-based or functional assay
CXCR4 (human) = CXCR4 (human) (UniProt P61073); assay: cell-based or functional assay
Chain of UniProt P61073 (P61073 whole entry): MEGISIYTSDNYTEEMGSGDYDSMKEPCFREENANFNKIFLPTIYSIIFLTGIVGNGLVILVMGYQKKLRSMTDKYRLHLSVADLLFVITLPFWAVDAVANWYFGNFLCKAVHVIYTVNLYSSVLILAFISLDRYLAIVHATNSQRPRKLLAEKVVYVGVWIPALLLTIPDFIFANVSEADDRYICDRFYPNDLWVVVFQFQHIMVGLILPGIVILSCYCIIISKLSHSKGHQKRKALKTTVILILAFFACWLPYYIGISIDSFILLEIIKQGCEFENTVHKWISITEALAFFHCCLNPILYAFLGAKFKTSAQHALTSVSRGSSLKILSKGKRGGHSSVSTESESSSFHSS

Chain of UniProt P49238 (P49238 whole entry): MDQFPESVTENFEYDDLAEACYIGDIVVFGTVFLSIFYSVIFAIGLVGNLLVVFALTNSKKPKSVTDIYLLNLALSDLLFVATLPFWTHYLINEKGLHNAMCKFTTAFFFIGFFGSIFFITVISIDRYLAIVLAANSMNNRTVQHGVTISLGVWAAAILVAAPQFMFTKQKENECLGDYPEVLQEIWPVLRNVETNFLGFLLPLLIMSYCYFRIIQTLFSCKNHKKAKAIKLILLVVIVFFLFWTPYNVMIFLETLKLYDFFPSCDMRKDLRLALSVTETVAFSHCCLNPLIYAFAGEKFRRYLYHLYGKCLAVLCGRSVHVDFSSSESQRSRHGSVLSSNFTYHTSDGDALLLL

## anti-human CX3CR1 (clone 2A9-1; MBL) (antibody)
CX3CR1 (human)
  decrease of neurosphere-induced migration of RS-MSCs and mMSCs: 40%

## anti-human CXCR4 (clone 12G5; R&D Systems) (antibody)
CXCR4 (human)
  decrease of neurosphere-induced migration of RS-MSCs and mMSCs: 40%
